Measured values taken from patent publication US20210070883A1 (AQUALUNG THERAPEUTICS, published 2021).
Substitutions are numbered along the chain they refer to.

B1: 1076 humanized anti-hNAMPT antibody K-1076 (antibody, V domains shown)
VH: QVQLVQSGAEVKKPGASVKVSCKASGYTFTSYWMQWVRQAPGQGLEWMGEIDPSNSYTNYNQKFRGRVTMTTDTSTSTAYMELRSLRSDDTAVYYCARGGYWGQGTTVTVSS
VL: DIVMTQSPLSLPVTPGEPASISCRSSKSLLHSQGITYLYWYLQKPGQSPQLLIYQLSNRASGVPDRFSGSGSGTDFTLKISRVEAEDVGVYYCVQNLELPYTFGGGTKLEIK
notes: also called Ab-1076-HC2-LC5
B2: 1093 humanized anti-hNAMPT antibody NN-1093 (antibody, V domains shown)
VH: QVQLVQSGAEVTKPGASVKVSCKASGYTFTSYWMHWVRQAPGQGLEWVGEIDPSDSYTNYNQKFKGRVTLTRDTSTTTVYMELSSLRSEDTAVYYCAKSNYVVPWYFDVWGQGTTVTVSS
VL: EIVLTQSPATLSLSPGERATLSCRSSKSLLHSNGITYLYWYQQKPGQAPRLLIYQMSNLASGIPARFSGSGSGTDFTLTISSLEPEDFAVYYCAQNLELPWTFGGGTKLEIK
notes: Humanized from AL-310; it was detected with a goat anti-human antibody
B3: murine anti-hNAMPT antibody AL-303 (antibody, V domains shown)
VH: QVQLQQPGADLVKPGASVKLSCKASGYTFTSYWMQWVKQRPGQGLEWIGEIDPSNSYTNYNQKFRGKATLTVDPSSSTAYMQLSSLTSEDSAVYYCARGGYWGQGTTLTVSS
VL: DIVMTQAAFSNPVTLGTSASISCRSSKSLLHSNGITYLYWYLQKPGQSPQLLIYQMSNLASGVPDRFSSSGSGTDFTLRISRVEAEDVGVYYCVQNLELPYTFGGGTKLEIK
notes: Murine monoclonal antibody
B4: murine anti-NAMPT antibody AL-304 (antibody, V domains shown)
VH: B3 VH
VL: B3 VL
B5: murine anti-NAMPT antibody AL-310 (antibody, V domains shown)
VH: QVQLQQSGAESVMPGASVKLSCKASGYTFTSYWMHWVKQRPGQGLEWIGEIDPSDSYTNYNQKFKGKSTLTVDKSSSTAYMQLSSLTSEDSAVYYCAKSNYVVPWYFDVWGTGTTVTVSS
VL: B3 VL with V94A, Y101W
notes: Murine monoclonal antibody; also called AL-310mAb

What was measured:
[1] = target: T1, human nicotinamide phosphoribosyltransferase (NAMPT) (human, UniProt P43490 1-491); experiment: told with the Pepscan epitope mapping; assay for the dimer not described
T1 construct: Recombinant hNAMPT was bought (MBL International); In the Western blots the protein was recombinant or in HPAEC lysate; also called hNAMPT; recombinant hNAMPT
T1 sequence (P43490 whole entry): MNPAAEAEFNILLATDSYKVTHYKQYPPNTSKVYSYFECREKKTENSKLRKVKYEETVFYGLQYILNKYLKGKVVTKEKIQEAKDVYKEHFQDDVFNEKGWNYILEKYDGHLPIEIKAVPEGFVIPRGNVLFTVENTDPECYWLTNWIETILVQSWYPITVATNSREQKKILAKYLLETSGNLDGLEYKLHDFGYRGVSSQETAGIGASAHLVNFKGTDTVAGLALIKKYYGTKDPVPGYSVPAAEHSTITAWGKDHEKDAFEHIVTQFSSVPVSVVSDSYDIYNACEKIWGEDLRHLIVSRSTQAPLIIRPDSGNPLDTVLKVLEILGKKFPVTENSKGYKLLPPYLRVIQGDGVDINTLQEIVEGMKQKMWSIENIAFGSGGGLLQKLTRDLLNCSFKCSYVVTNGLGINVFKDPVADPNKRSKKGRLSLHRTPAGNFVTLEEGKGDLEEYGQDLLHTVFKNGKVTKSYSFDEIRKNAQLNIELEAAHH

[2] = target: T1, human nicotinamide …; experiment: Western blot on recombinant hNAMPT and HPAEC cell lysate, exposures of 30 sec and 5 min
mouse NAMPT = target: T2, mouse NAMPT (mouse, UniProt Q99KQ4 1-491, limits assumed); experiment: Western blot on recombinant mNAMPT and mouse lung lysates (SB, LPS, VILI), exposures of 30 sec and 5 min
T2 construct: Recombinant mNAMPT; also called mNAMPT; recombinant mouse NAMPT
T2 sequence (Q99KQ4 whole entry): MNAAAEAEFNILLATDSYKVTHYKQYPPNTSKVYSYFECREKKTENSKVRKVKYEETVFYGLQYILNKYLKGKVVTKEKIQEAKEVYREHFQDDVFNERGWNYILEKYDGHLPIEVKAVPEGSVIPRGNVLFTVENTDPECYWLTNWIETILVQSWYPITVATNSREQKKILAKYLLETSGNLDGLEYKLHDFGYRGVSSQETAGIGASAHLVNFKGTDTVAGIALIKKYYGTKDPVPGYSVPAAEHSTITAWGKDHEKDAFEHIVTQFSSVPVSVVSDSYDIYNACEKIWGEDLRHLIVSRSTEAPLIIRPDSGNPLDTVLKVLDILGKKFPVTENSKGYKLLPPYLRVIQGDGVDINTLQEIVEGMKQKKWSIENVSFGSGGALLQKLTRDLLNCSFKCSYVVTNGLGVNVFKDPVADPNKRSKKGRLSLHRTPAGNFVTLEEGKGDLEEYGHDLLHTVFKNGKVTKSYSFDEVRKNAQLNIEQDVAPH

Row | Binder | binding result [1] | binding result [2] | binding result (mouse NAMPT)
1 | B1 | binds |  | 
2 | B2 | binds |  | 
3 | B3 |  | binds | binds
4 | B4 |  | binds | binds
5 | B5 |  | binds | no binding
